Reference: publication PMC12069319, “Transcriptional co-regulator OCA-B/Pou2af1 restricts Th2 differentiation”

Molecular target: Oct1 DNA binding domain (Oct1-DBD);OCA-B (human (from pBabe-hOct1);, UniProt P14859;Q16633 280-438;1-256, |)
Experiment: EMSA; OCA-B supershifts Oct1-DBD; EMSA: 0.6X buffer D (1X: 20 mM HEPES, 100 mM KCl, 1 mM DTT), 50 ng/ul poly-dI/dC, 1 ug/ul BSA, on ice 15 min, 6% native PAGE in 0.5X TBE; probe 50 nM (1 nM for)
Conditions: protein: recombinant;recombinant; tags: His (pET28a);C-terminal twinstrep and FLAG; copies: 1;1; blunt

Oct1 DNA binding domain (Oct1-DBD);OCA-B, sequence (P14859 280-438, chain 1 of 2): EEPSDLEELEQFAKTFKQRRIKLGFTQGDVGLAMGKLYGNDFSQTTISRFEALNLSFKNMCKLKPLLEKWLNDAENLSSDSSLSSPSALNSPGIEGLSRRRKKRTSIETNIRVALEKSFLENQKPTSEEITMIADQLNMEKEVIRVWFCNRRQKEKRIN
Oct1 DNA binding domain (Oct1-DBD);OCA-B, sequence (Q16633 whole entry, chain 2 of 2, the tested form may be a part): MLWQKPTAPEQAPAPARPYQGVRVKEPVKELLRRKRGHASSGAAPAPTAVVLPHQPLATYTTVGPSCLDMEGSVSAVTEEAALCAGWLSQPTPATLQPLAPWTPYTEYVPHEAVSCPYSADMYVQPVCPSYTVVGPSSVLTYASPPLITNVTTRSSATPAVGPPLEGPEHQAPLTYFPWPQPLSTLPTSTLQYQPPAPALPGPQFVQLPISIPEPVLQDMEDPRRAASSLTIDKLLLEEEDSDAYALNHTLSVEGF

B1: RHS6-Cy5 (dsDNA)
DNA 1: CACCATGCAAAGGATGTGCGCGGACTCCCTTCCATTTGCTGGCCTCTTATCTGATA
DNA 2: TATCAGATAAGAGGCCAGCAAATGGAAGGGAGTCCGCGCACATCCTTTGCATGGTG
Q: Does B1 bind?
A: binds
